This is an account of results in paper PMC7457226 (Developmental cell, 2019).

Substitutions are numbered along the chain they refer to. Numbers in names are those of the source.

One data set deals with Rab11 (Homo sapiens) (UniProt P62491). The settings on record: cited from earlier work.
A further data set has as its target WDR44 334-435 (human) (UniProt Q5JSH3). Nature of the data set: ITC. On the technique in general: In ITC the heat of successive injections is recorded.
In data set [1] the target is Rab11Q70L 6-186-WDR44 334-435 complex (human) (UniProt P62491). Description: ITC.
The data set “SEC” deals with the molecule itself. Nature of the data set: SEC. A general note: In gel filtration, larger molecules generally elute earlier.

Chain of WDR44 334-435 (human) (Q5JSH3 334-435): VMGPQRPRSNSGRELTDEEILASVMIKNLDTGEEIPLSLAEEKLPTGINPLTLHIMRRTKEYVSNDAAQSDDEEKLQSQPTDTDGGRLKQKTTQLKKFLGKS
Chain of Rab11 (Homo sapiens) (P62491 2-213): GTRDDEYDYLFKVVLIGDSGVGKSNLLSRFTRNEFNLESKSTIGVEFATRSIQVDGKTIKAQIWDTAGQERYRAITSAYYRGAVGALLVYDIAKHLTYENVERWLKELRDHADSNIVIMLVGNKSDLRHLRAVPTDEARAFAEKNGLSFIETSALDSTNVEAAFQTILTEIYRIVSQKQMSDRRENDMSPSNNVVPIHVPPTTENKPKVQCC

In the case of Rabin8 (from UniProt Q96QF0), the Kd with Rab11 (Homo sapiens) was 40 µM.
For “Rab11Q70L 6-186 (calorimetry) (from UniProt P62491 6-186) (domain or fragment)”, the Kd with WDR44 334-435 (human) was 0.54 µM.

B1: Rabin8C (residues 270-460) (domain or fragment)
chain: NKSTSSAMSGSHQDLSVIQPIVKDCKEADLSLYNEFRLWKDEPTMDRTCPFLDKIYQEDIFPCLTFSKSELASAVLEAVENNTLSIEPVGLQPIRFVKASAVECGGPKKCALTGQSKSCKHRIKLGDSSNYYYISPFCRYRITSVCNFFTYIRYIQQGLVKQQDVDQMFWEVMQLRKEMSLAKLGYFKEEL
With B1, the Kd in data set [1] came out at 37.2 µM.

B2: Rabin8 144-C (domain or fragment, human, UniProt Q96QF0-2 144-460, looked up)
chain: RLRSPSVLEVREKGYERLKEELAKAQRELKLKDEECERLSKVRDQLGQELEELTASLFEEAHKMVREANIKQATAEKQLKEAQGKIDVLQAEVAALKTLVLSSSPTSPTQEPLPGGKTPFKKGHTRNKSTSSAMSGSHQDLSVIQPIVKDCKEADLSLYNEFRLWKDEPTMDRTCPFLDKIYQEDIFPCLTFSKSELASAVLEAVENNTLSIEPVGLQPIRFVKASAVECGGPKKCALTGQSKSCKHRIKLGDSSNYYYISPFCRYRITSVCNFFTYIRYIQQGLVKQQDVDQMFWEVMQLRKEMSLAKLGYFKEEL
As to B2, the binding result in “SEC” is given as “binds”.

B3: Rabin8 144-C S147D/S149D (domain or fragment, human, UniProt Q96QF0-2 144-460, looked up)
chain: B2 chain with S4D, S6D
Consider B3, for which, in “SEC”, the binding result is on record as “binds”.

B4: Rabin8 144-C S147A/S149A (domain or fragment, human, UniProt Q96QF0-2 144-460, looked up)
chain: B2 chain with S4A, S6A
Take B4: the binding result in “SEC” was “binds”.

What is called Kd is the equilibrium constant for the complex coming apart.
